Assay results reported in PMC7990337, “Architecture and mechanism of metazoan retromer:SNX3 tubular coat assembly” (Science Advances, 2021).

Molecular target: zebrafish VPS26 (zebrafish, UniProt Q6TNP8 1-327)
Assay: cryo-EM structure; cryo-electron tomography with subtomogram averaging of coats reconstituted on PI(3)P- and DGS-Ni-NTA-containing liposomes: 2.5 uM core trimer, 3.5x molar excess of adaptor (SNX3 or Grd19) and the corresponding His-tagged cargo peptide (Wls or Kex2), liposomes 0.16 mg/ml, 4 hours at 22°C in buffer A (20 mM Hepes-KOH pH 7.5, 200 mM NaCl, 1 mM TCEP)
Settings: both partners purified

B1: His6Wls (peptide, UniProt Q6DID7 493-541, looked up)
chain: APSHKNYGEDQSNGDLGVHSGEELQLTTTITHVDGPTEIYKLTRKEAQE
notes: Wntless (Wls), residues 493 to 541 (C-terminal domain), UniProt Q6DID7; Cloned in pRSFDuet-1; attached to the liposome membrane (liposomes contain DGS-Ni-NTA); also called Wntless cargo peptide; Wls cargo tail peptide; source: E. coli BL21(DE3), purified (Ni-NTA, Superdex Peptide 10/300)
binding result: binds
